Laboratory results from patent US20220380433A1.

Assays:
[1] = target: H63 CAR as expressed from H63 CAR-2A-TMEM59, on H63 CAR-2A-TMEM59-T lymphocytes; test: flow cytometry; biotin-protein L and PE-streptavidin on H63 CAR-2A-TMEM59-T lymphocytes
[2] = target: H63 CAR (CD8 signal peptide-H63-human CD8 hinge region-human CD8 transmembrane region-human 4-1BB costimulatory domain-CD3zeta signaling domain), on H63 CAR-T lymphocytes; test: flow cytometry; biotin-protein L and PE-streptavidin on H63 CAR-T lymphocytes
Sequence of H63 CAR (CD8 signal peptide-H63-human CD8 hinge region-human CD8 transmembrane region-human 4-1BB costimulatory domain-CD3zeta signaling domain), on H63 CAR-T lymphocytes (chain, as listed by the source): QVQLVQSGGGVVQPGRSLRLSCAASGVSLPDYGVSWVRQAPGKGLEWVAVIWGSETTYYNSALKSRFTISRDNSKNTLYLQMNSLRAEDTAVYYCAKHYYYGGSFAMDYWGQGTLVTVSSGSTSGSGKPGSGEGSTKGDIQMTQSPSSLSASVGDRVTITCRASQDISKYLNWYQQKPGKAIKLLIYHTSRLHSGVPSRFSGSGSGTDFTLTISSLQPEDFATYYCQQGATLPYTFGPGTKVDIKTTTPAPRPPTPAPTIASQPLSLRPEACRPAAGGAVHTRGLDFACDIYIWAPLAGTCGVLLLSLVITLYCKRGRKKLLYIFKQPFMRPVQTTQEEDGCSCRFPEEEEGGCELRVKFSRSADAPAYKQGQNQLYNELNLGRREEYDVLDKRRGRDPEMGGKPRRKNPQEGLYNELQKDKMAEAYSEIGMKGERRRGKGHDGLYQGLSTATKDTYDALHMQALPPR

Sequence of H63 CAR as expressed from H63 CAR-2A-TMEM59, on H63 CAR-2A-TMEM59-T lymphocytes (chain, as listed by the source): as above

CAR positive cells % (protein L-positive) [1]: 83.2% | CAR positive cells % (protein L-positive) [2]: 82.7%
Substance: biotin-protein L (ACROBIOSYSTEMS, RPL-P814R)
